Experiment [1] has as its target T1, human CD3 epsilon subunit (CD3e), as cell surface CD3 on Jurkat cells and on naive human T cells (human, UniProt P07766 23-207). Kind of experiment: cell-based or functional assay.
Experiment [2] deals with T2, CD3ed (CD3 epsilon/delta fusion protein) (human).
T2 construct: Expressed in HEK293 and purified on His60 resin and by SEC; also called soluble human CD3ed antigen; hCD3ed
T2 chain: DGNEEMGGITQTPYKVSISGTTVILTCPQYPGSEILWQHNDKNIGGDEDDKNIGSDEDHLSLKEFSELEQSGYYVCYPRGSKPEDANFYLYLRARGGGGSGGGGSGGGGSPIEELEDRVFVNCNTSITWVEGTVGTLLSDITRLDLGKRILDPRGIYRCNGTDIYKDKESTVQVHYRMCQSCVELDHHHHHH
Kind of experiment: SPR, recombinant human CD3.

For experiment [3], the target named is T1, human CD3 epsilon subunit (CD3e), as …. Kind of experiment: flow cytometry titration on naive human T cells (PE-A Geo Mean against Ab in nM); Kd printed beside the legend.
For experiment [4] the target is unchanged. Kind of experiment: FACS on Jurkat cells expressing CD3, monovalent IgG. As for the experimental part:
All the mutants were generated as monovalent IgG antibodies using standard transient HEK293 expression followed by purification using Protein A column. The resulting clones were tested for binding to Jurkat cells expressing CD3 using FACS and self-association potential using AC-SINS as described above in Example 7. As shown in Table 16, five molecules with improved epivax score and reduced T-cell epitopes and retained affinity to CD3 were chosen to move forward and test in diabody-Fc format. The 2B5v6 variants with improved epivax scores were compared to the parental 2B5v6.
Target sequence in this assay (P07766 23-207 limits assumed): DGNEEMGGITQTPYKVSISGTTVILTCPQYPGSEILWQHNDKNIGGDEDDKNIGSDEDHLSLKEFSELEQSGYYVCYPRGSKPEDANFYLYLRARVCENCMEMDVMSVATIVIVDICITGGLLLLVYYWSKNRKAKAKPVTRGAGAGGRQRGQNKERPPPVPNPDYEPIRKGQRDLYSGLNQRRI

B1: GUCY2C-1679 bispecific antibody (bispecific antibody)
chain 1: DIQLTQSPSSLSASVGDRVTITCRASESVDYYGSSLLQWYQQKPGKAPKLLIYAASKLASGVPSRFSGSGSGTDFTLTISSLQPEDFATYYCQQTRKAYTFGQGTKLEIKGGGSGGGGEVQLVESGGGLVQPGGSLRLSCAASGFTFSDYYMTWVRQAPGKGLEWVAFIRNQARGYTSDHNPSVKGRFTISRDNAKNSLYLQMNSLRAEDTAVYYCARDRPSYYVLDYWGQGTTVTVSSGCPPCPAPEAAGAPSVFLFPPKPKDTLMISRTPEVTCVVVDVSHEDPEVKFNWYVDGVEVHNAKTKPREEQYNSTYRVVSVLTVLHQDWLNGKEYKCKVSNKALPAPIEKTISKAKGQPREPQVCTLPPSREEMTKNQVSLWCLVKGFYPSDIAVEWESNGQPENNYKTTPPVLDSDGSFFLYSKLTVDKSRWQQGNVFSCSVMHEALHNHYTQKSLSLSPG
chain 2: DIQMTQSPSSLSASVGDRVTITCTSSQSLFNVRSGKNYLAWYQQKPGKAPKLLIYWASDRESGVPSRFSGSGSGTDFTLTISSLQPEDFATYYCKQSYDLFTFGGGTKVEIKGGGGSGGGGEVQLVESGGGLVQPGGSLRLSCAASGFTFSSYWMHWVRQAPGKGLEWIGEIKPSNELTNVHEKFKDRFTISVDKAKNSAYLQMNSLRAEDTAVYYCTRTITTTEGYWFFDVWGQGTLVTVSSGCPPCPAPEAAGAPSVFLFPPKPKDTLMISRTPEVTCVVVDVSHEDPEVKFNWYVDGVEVHNAKTKPREEQYNSTYRVVSVLTVLHQDWLNGKEYKCKVSNKALPAPIEKTISKAKGQPREPQVYTLPPCREEMTKNQVSLSCAVKGFYPSDIAVEWESNGQPENNYKTTPPVLDSDGSFFLVSKLTVDKSRWQQGNVFSCSVMHEALHNHYTQKSLSLSPG
notes: Bispecific diabody-Fc; also called GUCY2c bispecific with CD3 variant 2B5-1040
With B1, the “In vitro Cytotoxicity” value in experiment [1] is 0.194 nM. For the same molecule, in experiment [2], the Kd stood at 72 nM.

B2: GUCY2c-H2B4 bispecific antibody (bispecific antibody, human IgG1)
chain 1: DIQLTQSPSSLSASVGDRVTITCRASESVDYYGTSLMQWYQQKPGKPPKLLIYAASNVESGVPSRFSGSGSGTDFTLTISSLQPEDFATYYCQQTRKVYTFGQGTKLEIKGGGSGGGGEVQLVESGGGLVQPGGSLRLSCAASGFTFSDYYMTWVRQAPGKGLEWVAFIRNRARGYTSDHNPSVKGRFTISRDNAKNSLYLQMNSLRAEDTAVYYCARDRPSYYVLDYWGQGTTVTVSSGCPPCPAPEAAGAPSVFLFPPKPKDTLMISRTPEVTCVVVDVSHEDPEVKFNWYVDGVEVHNAKTKPREEQYNSTYRVVSVLTVLHQDWLNGKEYKCKVSNKALPAPIEKTISKAKGQPREPQVCTLPPSREEMTKNQVSLWCLVKGFYPSDIAVEWESNGQPENNYKTTPPVLDSDGSFFLYSKLTVDKSRWQQGNVFSCSVMHEALHNHYTQKSLSLSPG
chain 2: DIVMTQSPDSLAVSLGERATINCKSSQSLFNVRSRKNYLAWYQQKPGQPPKLLISWASTRESGVPDRFSGSGSGTDFTLTISSLQAEDVAVYYCKQSYDLFTFGSGTKLEIKGGGSGGGGEVQLVESGGGLVQPGGSLRLSCAASGYTFTSYWMHWVRQAPGKGLEWIGEIKPSNGLTNYIEKFKNRFTISVDKAKNSAYLQMNSLRAEDTAVYYCTRTITTTEGYWFFDVWGQGTLVTVSSGCPPCPAPEAAGAPSVFLFPPKPKDTLMISRTPEVTCVVVDVSHEDPEVKFNWYVDGVEVHNAKTKPREEQYNSTYRVVSVLTVLHQDWLNGKEYKCKVSNKALPAPIEKTISKAKGQPREPQVYTLPPCREEMTKNQVSLSCAVKGFYPSDIAVEWESNGQPENNYKTTPPVLDSDGSFFLVSKLTVDKSRWQQGNVFSCSVMHEALHNHYTQKSLSLSPG
notes: Bispecific diabody-Fc (knob-in-hole, effector null human IgG1 Fc)
B2: binding in experiment [3] was put at a Kd of 8.18 nM.

B3: GUCY2C-1678 bispecific antibody (bispecific antibody)
chain 1: DIQLTQSPSSLSASVGDRVTITCRASESVDYYGSSLLQWYQQKPGKAPKLLIYAASKLASGVPSRFSGSGSGTDFTLTISSLQPEDFATYYCQQTRKAYTFGQGTKLEIKGGGSGGGGEVQLVESGGGLVQPGGSLRLSCAASGFTFSDYYMTWVRQAPGKGLEWVAFIRNQARGYTSDHNPSVKGRFTISRDNAKNSLYLQMNSLRAEDTAVYYCARDRPSYYVLDYWGQGTTVTVSSGCPPCPAPEAAGAPSVFLFPPKPKDTLMISRTPEVTCVVVDVSHEDPEVKFNWYVDGVEVHNAKTKPREEQYNSTYRVVSVLTVLHQDWLNGKEYKCKVSNKALPAPIEKTISKAKGQPREPQVCTLPPSREEMTKNQVSLWCLVKGFYPSDIAVEWESNGQPENNYKTTPPVLDSDGSFFLYSKLTVDKSRWQQGNVFSCSVMHEALHNHYTQKSLSLSPG
chain 2: DIQMTQSPSSLSASVGDRVTITCTSDQSLFNVRSGKNYLAWYQQKPGKAPKLLIYWASDRESGVPSRFSGSGSGTDFTLTISSLQPEDFATYYCKQSYDLFTFGGGTKVEIKGGGGSGGGGEVQLVESGGGLVQPGGSLRLSCAASGFTFSSYWMHWVRQAPGKGLEWIGEIKPSNELTNVHEKFKDRFTISVDKAKNSAYLQMNSLRAEDTAVYYCTRTITTTEGYWFFDVWGQGTLVTVSSGCPPCPAPEAAGAPSVFLFPPKPKDTLMISRTPEVTCVVVDVSHEDPEVKFNWYVDGVEVHNAKTKPREEQYNSTYRVVSVLTVLHQDWLNGKEYKCKVSNKALPAPIEKTISKAKGQPREPQVYTLPPCREEMTKNQVSLSCAVKGFYPSDIAVEWESNGQPENNYKTTPPVLDSDGSFFLVSKLTVDKSRWQQGNVFSCSVMHEALHNHYTQKSLSLSPG
notes: Bispecific diabody-Fc; also called GUCY2c bispecific with CD3 variant 2B5-1038
Regarding B3, the “In vitro Cytotoxicity” value in experiment [1] stood at 0.247 nM. Moreover, the Kd in experiment [2] worked out at 63.5 nM.

B4: GUCY2C-1680 bispecific antibody (bispecific antibody)
chain 1: DIQLTQSPSSLSASVGDRVTITCRASESVDYYGSSLLQWYQQKPGKAPKLLIYAASKLASGVPSRFSGSGSGTDFTLTISSLQPEDFATYYCQQTRKAYTFGQGTKLEIKGGGSGGGGEVQLVESGGGLVQPGGSLRLSCAASGFTFSDYYMTWVRQAPGKGLEWVAFIRNQARGYTSDHNPSVKGRFTISRDNAKNSLYLQMNSLRAEDTAVYYCARDRPSYYVLDYWGQGTTVTVSSGCPPCPAPEAAGAPSVFLFPPKPKDTLMISRTPEVTCVVVDVSHEDPEVKFNWYVDGVEVHNAKTKPREEQYNSTYRVVSVLTVLHQDWLNGKEYKCKVSNKALPAPIEKTISKAKGQPREPQVCTLPPSREEMTKNQVSLWCLVKGFYPSDIAVEWESNGQPENNYKTTPPVLDSDGSFFLYSKLTVDKSRWQQGNVFSCSVMHEALHNHYTQKSLSLSPG
chain 2: DIQMTQSPSSLSASVGDRVTITCTSSESLFNVRSGKNYLAWYQQKPGKAPKLLIYWASDRESGVPSRFSGSGSGTDFTLTISSLQPEDFATYYCKQSYDLFTFGGGTKVEIKGGGGSGGGGEVQLVESGGGLVQPGGSLRLSCAASGFTFSSYWMHWVRQAPGKGLEWIGEIKPSNELTNVHEKFKDRFTISVDKAKNSAYLQMNSLRAEDTAVYYCTRTITTTEGYWFFDVWGQGTLVTVSSGCPPCPAPEAAGAPSVFLFPPKPKDTLMISRTPEVTCVVVDVSHEDPEVKFNWYVDGVEVHNAKTKPREEQYNSTYRVVSVLTVLHQDWLNGKEYKCKVSNKALPAPIEKTISKAKGQPREPQVYTLPPCREEMTKNQVSLSCAVKGFYPSDIAVEWESNGQPENNYKTTPPVLDSDGSFFLVSKLTVDKSRWQQGNVFSCSVMHEALHNHYTQKSLSLSPG
notes: Bispecific diabody-Fc; also called GUCY2c bispecific with CD3 variant 2B5-1039
For B4, the “In vitro Cytotoxicity” value in experiment [1] came out at 0.385 nM. Moreover, in experiment [2], the Kd amounted to 78.6 nM.

B5: 2B5v6-0517 (antibody, V domains shown)
VH: EVQLVESGGGLVQPGGSLRLSCAASGFTFSDYYMTWVRQAPGKGLEWVAFIRNQARGYTSDHQPSVKGRFTISRDNAKNSLYLQMNSLRAEDTAVYYCARDRPSYYVLDYWGQGTTVTVSS
VL: DIQMTQSPSSLSASVGDRVTITCTSSQSLFNVRSGKNYLAWYQQKPGKAPKLLIYWASTRESGVPSRFSGSGSGTDFTLTISSLQPEDFATYYCKQSYDLFTFGGGTKVEIK
notes: Tested as a monovalent IgG; also called 2B5-0517
Take B5: the EC50 in experiment [4] is 9.9 nM.

B6: 2B5v6-0533 (antibody, V domains shown)
VH: EVQLVESGGGLVQPGGSLRLSCAASGFTFSDYYMTWVRQAPGKGLEWVAFIRNQARGYTSDHNPSVKGRFTISRDNAKNSLYLQMNSLRAEDTAVYYCARDRPSYYVLDYWGQGTTVTVSS
VL: DIQMTQSPSSLSASVGDRVTITCTSSQSLFNVRSGKNYLAWYQQKPGKAPKLLIYWASTRESGVPSRFSGSGSGTDFTLTISSLQPEDFATYYCKQSYDLFTFGGGTKVEIK
notes: Tested as a monovalent IgG; also called 2B5-0533
In experiment [4], B6 yielded a half-maximal effective concentration (EC50) of 6.1 nM.

B7: 2B5v6-0522 (antibody, V domains shown)
VH: EVQLVESGGGLVQPGGSLRLSCAASGFTFSDYYMTWVRQAPGKGLEWVAFIRNQARGYTSDHQPSVKGRFTISRDNAKNSLYLQMNSLRAEDTAVYYCARDRPSYYVLDYWGQGTTVTVSS
VL: DIQMTQSPSSLSASVGDRVTITCTSSQSLFNVRSQKNYLAWYQQKPGKAPKLLIYWASDRESGVPSRFSGSGSGTDFTLTISSLQPEDFATYYCKQSYDLFTFGGGTKVEIK
notes: Tested as a monovalent IgG; also called 2B5-0522
Take B7: the response in experiment [4] was half-maximal at 8.6 nM (EC50).

B8: 2B5v6-0538 (antibody, V domains shown)
VH: EVQLVESGGGLVQPGGSLRLSCAASGFTFSDYYMTWVRQAPGKGLEWVAFIRNQARGYTSDHNPSVKGRFTISRDNAKNSLYLQMNSLRAEDTAVYYCARDRPSYYVLDYWGQGTTVTVSS
VL: DIQMTQSPSSLSASVGDRVTITCTSSQSLFNVRSQKNYLAWYQQKPGKAPKLLIYWASDRESGVPSRFSGSGSGTDFTLTISSLQPEDFATYYCKQSYDLFTFGGGTKVEIK
notes: Tested as a monovalent IgG; also called 2B5-0538
B8 displayed an EC50 in experiment [4] of 9.2 nM.

Values taken from patent US20190382486A1 (Pfizer, published 2019).
